US20230293638A1 (Eli Lilly, published 2023)
Numbered stars: 1 amine (or outer) side, 2 acyl side, 3 side chain; on linkers, the order of the positions; unused ones are H or OH. Square brackets hold non-standard residues; d marks the D form. Side chains are listed from the residue outwards. Ends that are not written are not given here. * marks the point of attachment. C20 diacid = O=C(O)CCCCCCCCCCCCCCCCCCC(=O)*; γGlu = O=C(O)[C@H](CCC(=O)[*:2])N[*:1]; AEEA = NCCOCCOCC(=O)O; Aib = CC(C)(N)C(=O)O

Target: human GLP-1 receptor (human, UniProt P43220 24-463)
Assay: cell-based or functional assay

| Binder | hGLPIR cAMP EC50 ratio |
| --- | --- |
| Y[Aib]EGTFTSDYSILLDKIAQ[Aib]K([AEEA-AEEA-γGlu-C20 diacid])FIEYLIEGGPSSGAPPPS-NH2 (N-terminus assumed; SMILES CC[C@H](C)[C@H](NC(=O)[C@H](CCCCN)NC(=O)[C@H](CC(=O)O)NC(=O)[C@H](CC(C)C)NC(=O)[C@H](CC(C)C)NC(=O)[C@@H](NC(=O)[C@H](CO)NC(=O)[C@H](Cc1ccc(O)cc1)NC(=O)[C@H](CC(=O)O)NC(=O)[C@H](CO)NC(=O)[C@@H](NC(=O)[C@H](Cc1ccccc1)NC(=O)[C@@H](NC(=O)CNC(=O)[C@H](CCC(=O)O)NC(=O)C(C)(C)NC(=O)[C@@H](N)Cc1ccc(O)cc1)[C@@H](C)O)[C@@H](C)O)[C@@H](C)CC)C(=O)N[C@@H](C)C(=O)N[C@@H](CCC(N)=O)C(=O)NC(C)(C)C(=O)N[C@@H](CCCCNC(=O)COCCOCCNC(=O)COCCOCCNC(=O)CC[C@H](NC(=O)CCCCCCCCCCCCCCCCCCC(=O)O)C(=O)O)C(=O)N[C@@H](Cc1ccccc1)C(=O)N[C@H](C(=O)N[C@@H](CCC(=O)O)C(=O)N[C@@H](Cc1ccc(O)cc1)C(=O)N[C@@H](CC(C)C)C(=O)N[C@H](C(=O)N[C@@H](CCC(=O)O)C(=O)NCC(=O)NCC(=O)N1CCC[C@H]1C(=O)N[C@@H](CO)C(=O)N[C@@H](CO)C(=O)NCC(=O)N[C@@H](C)C(=O)N1CCC[C@H]1C(=O)N1CCC[C@H]1C(=O)N1CCC[C@H]1C(=O)N[C@@H](CO)C(N)=O)[C@@H](C)CC)[C@@H](C)CC) [Peptide 32] | 0.136 |
| YXEGTXTSDXSIXLDXKAQXEFIXXLIEGGPSSG (Aib2; αMeF(2F)6; 4Pal10; αMeL13; Orn16; K17((2-[2-(2-Amino-ethoxy)-ethoxy]-acetyl)2-(γGlu)-CO-(CH2)16-CO2H); Aib20; D-Glu24; αMeY25; C-terminal NH2) [Peptide 264] | 3.19 |
| Y[Aib]EGTFTSDYSILLDKIAK([AEEA-AEEA-γGlu-C20 diacid])[Aib]AFIEYLIEGGPSSGAPPPS-NH2 (N-terminus assumed; SMILES CC[C@H](C)[C@H](NC(=O)[C@H](CCCCN)NC(=O)[C@H](CC(=O)O)NC(=O)[C@H](CC(C)C)NC(=O)[C@H](CC(C)C)NC(=O)[C@@H](NC(=O)[C@H](CO)NC(=O)[C@H](Cc1ccc(O)cc1)NC(=O)[C@H](CC(=O)O)NC(=O)[C@H](CO)NC(=O)[C@@H](NC(=O)[C@H](Cc1ccccc1)NC(=O)[C@@H](NC(=O)CNC(=O)[C@H](CCC(=O)O)NC(=O)C(C)(C)NC(=O)[C@@H](N)Cc1ccc(O)cc1)[C@@H](C)O)[C@@H](C)O)[C@@H](C)CC)C(=O)N[C@@H](C)C(=O)N[C@@H](CCCCNC(=O)COCCOCCNC(=O)COCCOCCNC(=O)CC[C@H](NC(=O)CCCCCCCCCCCCCCCCCCC(=O)O)C(=O)O)C(=O)NC(C)(C)C(=O)N[C@@H](C)C(=O)N[C@@H](Cc1ccccc1)C(=O)N[C@H](C(=O)N[C@@H](CCC(=O)O)C(=O)N[C@@H](Cc1ccc(O)cc1)C(=O)N[C@@H](CC(C)C)C(=O)N[C@H](C(=O)N[C@@H](CCC(=O)O)C(=O)NCC(=O)NCC(=O)N1CCC[C@H]1C(=O)N[C@@H](CO)C(=O)N[C@@H](CO)C(=O)NCC(=O)N[C@@H](C)C(=O)N1CCC[C@H]1C(=O)N1CCC[C@H]1C(=O)N1CCC[C@H]1C(=O)N[C@@H](CO)C(N)=O)[C@@H](C)CC)[C@@H](C)CC) [Peptide 31] | 0.0708 |
| YXEGTXTSDYSIXLDXKAQXEFIXYLIEGGPSSGAPPPS (not fully specified; Aib2; αMeF(2F)6; Aib13; Orn16; K17((2-[2-(2-Amino-ethoxy)-ethoxy]-acetyl)2-(γGlu)-CO-(CH2)16-CO2H); Aib20; D-Glu24; C-terminal NH2) [Peptide 247] | 0.614 |
| YXEGTXTSDYSIXLDXKAQXEFIXYLIEGGPSSGAPPPS (Aib2; αMeF(2F)6; Aib13; Orn16; K17((2-[2-(2-Amino-ethoxy)-ethoxy]-acetyl)2-(γGlu)-CO-(CH2)18-CO2H); Aib20; D-Glu24; C-terminal NH2) [Peptide 250] | 0.985 |
| YXEGTXTSDXSIXLDXKAQXAFIXXLIEGGPSSGAPPPS (Aib2; αMeF(2F)6; 4Pal10; αMeL13; Orn16; K17((2-[2-(2-Amino-ethoxy)-ethoxy]-acetyl)2-(εK)-CO-(CH2)18-CO2H); Aib20; D-Glu24; αMeY25; C-terminal NH2) [Peptide 251] | 1.37 |
| YXEGTXTSDYSILLDXKAQXEFIXYLIEGGPSSGAPPPS (not fully specified; Aib2; αMeF(2F)6; Orn16; K17((2-[2-(2-Amino-ethoxy)-ethoxy]-acetyl)2-(γGlu)-CO-(CH2)16-CO2H); Aib20; D-Glu24; C-terminal NH2) [Peptide 248] | 0.8 |
| YXEGTXTSDYSIXLDXKAQXEFIXYLIEGGPSSGAPPPS (not fully specified; Aib2; αMeF(2F)6; Nle13; Orn16; K17((2-[2-(2-Amino-ethoxy)-ethoxy]-acetyl)2-(γGlu)-CO-(CH2)16-CO2H); Aib20; D-Glu24; C-terminal NH2) [Peptide 249] | 0.778 |
